Patent US20130209454A1
Substitutions are numbered along the chain they refer to. Numbers in names are those of the source.

Columns and labels:
Test in all cases: cell-based or functional assay
[1] = target: HIV-1 Env of strain Ce1172_H1 (HIV-1)
[2] = target: HIV-1 Env of strain A07412M1.vrc12 (HIV-1)
[3] = target: HIV-1 Env of strain 6545.v4.c1 (HIV-1)
[4] = target: HIV-1 Env of strain CNE52 (HIV-1)
[5] = target: HIV-1 Env of strain X2088_c9 (HIV-1)
[6] = target: HIV-1 Env of strain C4118.c09 (HIV-1)
[7] = target: HIV-1 Env of strain Ce704809221_1B3 (HIV-1)
[8] = target: HIV-1 Env of strain 9004SS_A3_4 (HIV-1)
[9] = target: HIV-1 Env of strain 0260.v5.c36 (HIV-1)
[10] = target: HIV-1 Env of strain 191955_A11 (HIV-1)
[11] = target: HIV-1 Env of strain 6952.v1.c20 (HIV-1)
[12] = target: HIV-1 Env of strain 6240_08_TA5_4622 (HIV-1)
[13] = target: HIV-1 Env of strain 191084 B7-19 (HIV-1)
[14] = target: HIV-1 Env of strain BJOX015000.11.5 (HIV-1)
[15] = target: HIV-1 Env of strain 246F C1G (HIV-1)
[16] = target: HIV-1 Env of strain 3365.v2.c2 (HIV-1)
[17] = target: HIV-1 Env of strain HIV-16055-2.3 (HIV-1)
[18] = target: HIV-1 Env of strain TRJO4551.58 (HIV-1)
[19] = target: Env of HIV-1 strain 1394C9G1(Rev-) (HIV-1)
[20] = target: Env of HIV-1 strain 620345.c01 (HIV-1)
[21] = target: Env of HIV-1 strain CNE8 (HIV-1)
[22] = target: Env of HIV-1 strain Ce1172_H1 (HIV-1)
[23] = target: Env of HIV-1 strain P0402_c2_11 (HIV-1)
[24] = target: Env of HIV-1 strain ZM109F.PB4 (HIV-1)
[25] = target: Env of HIV-1 strain 6240_08_TA5_4622 (HIV-1)
[26] = target: Env of HIV-1 strain Ce1176_A3 (HIV-1)
[27] = target: Env of HIV-1 strain 6244_13_B5_4576 (HIV-1)
[28] = target: Env of HIV-1 strain T250-4 (HIV-1)
[29] = target: Env of HIV-1 strain 3365.v2.c2 (HIV-1)
[30] = target: Env of HIV-1 strain ZM247v1(Rev-) (HIV-1)
[31] = target: Env of HIV-1 strain 1054_07_TC4_1499 (HIV-1)
[32] = target: Env of HIV-1 strain BF1266.431a (HIV-1)
[33] = target: Env of HIV-1 strain 6041.v3.c23 (HIV-1)
[34] = target: Env of HIV-1 strain ZM53M.PB12 (HIV-1)
[35] = target: Env of HIV-1 strain X2088_c9 (HIV-1)
[36] = target: Env of HIV-1 strain SC422661.8 (HIV-1)
[37] = target: Env of HIV-1 strain 0260.v5.c36 (HIV-1)
[38] = target: Env of HIV-1 strain WEAU_d15_410_787 (HIV-1)
[39] = target: Env of HIV-1 strain CNE52 (HIV-1)
[40] = target: Env of HIV-1 strain 3817.v2.c59 (HIV-1)
[41] = target: Env of HIV-1 strain 235-47 (HIV-1)
[42] = target: Env of HIV-1 strain 1006_11_C3_1601 (HIV-1)
[43] = target: Env of HIV-1 strain Ce0393_C3 (HIV-1)
[44] = target: Env of HIV-1 strain P1981_C5_3 (HIV-1)
[45] = target: Env of HIV-1 strain C1080.c03 (HIV-1)
[46] = target: Env of HIV-1 strain CNE58 (HIV-1)
[47] = target: Env of HIV-1 strain HIV-16055-2.3 (HIV-1)
[48] = target: Env of HIV-1 strain Ce2010_F5 (HIV-1)
[49] = target: Env of HIV-1 strain 1012_11_TC21_3257 (HIV-1)
[50] = target: Env of HIV-1 strain Ce2060_G9 (HIV-1)

B1: NIH45-46^G54W(HC), S28Y(LC) (antibody, V domains shown)
VH: QVRLSQSGGQMKKPGESMRLSCRASGYEFLNCPINWIRLAPGRRPEWMGWLKPRWGAVNYARKFQGRVTMTRDVYSDTAFLELRSLTSDDTAVYFCTRGKYCTARDYYNWDFEHWGRGAPVTVSS
VL: EIVLTQSPATLSLSPGETAIISCRTSQYGSLAWYQQRPGQAPRLVIYSGSTRAAGIPDRFSGSRWGADYNLSISNLESGDFGVYYCQQYEFFGQGTKVQVDI
IC50, pseudovirus neutralization [1]: > 50 mg/L | IC50, pseudovirus neutralization [2]: 0.001 mg/L | IC50, pseudovirus neutralization [3]: 15.2 mg/L | IC50, pseudovirus neutralization [4]: 0.004 mg/L | IC50, pseudovirus neutralization [5]: 44.3 mg/L | IC50, pseudovirus neutralization [6]: 0.011 mg/L | IC50, pseudovirus neutralization [7]: 0.101 mg/L | IC50, pseudovirus neutralization [8]: 0.046 mg/L | IC50, pseudovirus neutralization [9]: 0.032 mg/L | IC50, pseudovirus neutralization [10]: 0.013 mg/L | IC50, pseudovirus neutralization [11]: 0.007 mg/L | IC50, pseudovirus neutralization [12]: 0.173 mg/L | IC50, pseudovirus neutralization [13]: 0.001 mg/L | IC50, pseudovirus neutralization [14]: 0.039 mg/L | IC50, pseudovirus neutralization [15]: 0.036 mg/L | IC50, pseudovirus neutralization [16]: 0.014 mg/L | IC50, pseudovirus neutralization [17]: 0.002 mg/L | IC50, pseudovirus neutralization [18]: 0.004 mg/L

B2: NIH45-46^G54W (antibody, V domains shown)
VH: B1 VH
VL: B1 VL with Y28S
IC80 [19]: 0.024 mg/L | IC80 [20]: > 50 mg/L | IC50, pseudovirus neutralization [1]: > 50 mg/L | IC50, pseudovirus neutralization [2]: 0.001 mg/L | IC50, pseudovirus neutralization [3]: 18.9 mg/L | IC80 [21]: 0.24 mg/L | IC80 [22]: > 50 mg/L | IC50, pseudovirus neutralization [4]: 0.01 mg/L | IC80 [23]: 0.023 mg/L | IC80 [24]: 0.07 mg/L | IC80 [25]: 0.603 mg/L | IC80 [26]: 0.45 mg/L | IC80 [27]: 0.095 mg/L | IC80 [28]: 44.9 mg/L | IC80 [29]: 0.056 mg/L | IC50, pseudovirus neutralization [5]: > 50 mg/L | IC50, pseudovirus neutralization [6]: 0.01 mg/L | IC50, pseudovirus neutralization [7]: 0.007 mg/L | IC80 [30]: 2.6 mg/L | IC50, pseudovirus neutralization [8]: 0.054 mg/L | IC80 [31]: 0.165 mg/L | IC50, pseudovirus neutralization [9]: 0.117 mg/L | IC50, pseudovirus neutralization [10]: 0.015 mg/L | IC50, pseudovirus neutralization [11]: 0.001 mg/L | IC80 [32]: 0.001 mg/L | IC80 [33]: 0.001 mg/L | IC80 [34]: 0.16 mg/L | IC50, pseudovirus neutralization [12]: 0.11 mg/L | IC80 [35]: > 50 mg/L | IC80 [36]: 0.07 mg/L | IC80 [37]: 0.399 mg/L | IC80 [38]: 0.003 mg/L | IC80 [39]: 0.052 mg/L | IC50, pseudovirus neutralization [13]: 0.001 mg/L | IC50, pseudovirus neutralization [14]: 0.048 mg/L | IC80 [40]: > 50 mg/L | IC80 [41]: 0.017 mg/L | IC80 [42]: 0.008 mg/L | IC80 [43]: 0.089 mg/L | IC50, pseudovirus neutralization [15]: 0.315 mg/L | IC50, pseudovirus neutralization [16]: 0.01 mg/L | IC80 [44]: 0.07 mg/L | IC80 [45]: 0.91 mg/L | IC80 [46]: 0.05 mg/L | IC80 [47]: 0.024 mg/L | IC80 [48]: 0.187 mg/L | IC50, pseudovirus neutralization [17]: 0.001 mg/L | IC80 [49]: 0.003 mg/L | IC80 [50]: 0.042 mg/L | IC50, pseudovirus neutralization [18]: 0.01 mg/L

B3: NIH45-46^G54W(HC) S28Y(LC) (antibody, V domains shown)
VH: B1 VH
VL: B1 VL
IC80 [19]: 0.055 mg/L | IC80 [20]: > 50 mg/L | IC80 [21]: 0.156 mg/L | IC80 [22]: > 50 mg/L | IC80 [23]: 0.042 mg/L | IC80 [24]: 0.086 mg/L | IC80 [25]: 0.623 mg/L | IC80 [26]: 0.467 mg/L | IC80 [27]: 0.109 mg/L | IC80 [28]: 38.9 mg/L | IC80 [29]: 0.049 mg/L | IC80 [30]: 0.034 mg/L | IC80 [31]: 0.515 mg/L | IC80 [32]: 0.013 mg/L | IC80 [33]: 0.003 mg/L | IC80 [34]: 0.257 mg/L | IC80 [35]: > 50 mg/L | IC80 [36]: 0.09 mg/L | IC80 [37]: 0.084 mg/L | IC80 [38]: 0.027 mg/L | IC80 [39]: 0.028 mg/L | IC80 [40]: > 50 mg/L | IC80 [41]: 0.019 mg/L | IC80 [42]: 0.037 mg/L | IC80 [43]: 0.151 mg/L | IC80 [44]: 0.045 mg/L | IC80 [45]: 0.589 mg/L | IC80 [46]: 0.042 mg/L | IC80 [47]: 0.017 mg/L | IC80 [48]: 0.133 mg/L | IC80 [49]: 0.008 mg/L | IC80 [50]: 0.062 mg/L
